The text below walks through data of patent US20060134756A1 (ZymoGenetics, published 2006).

The target of the test is T1, CRF2-4/IL-22RA heterodimeric receptor on BaF3 cells (BaF3/CRF2-4/IL-22RA cells) (human, UniProt Q08334 20-325, limits assumed).
T1 sequence 1: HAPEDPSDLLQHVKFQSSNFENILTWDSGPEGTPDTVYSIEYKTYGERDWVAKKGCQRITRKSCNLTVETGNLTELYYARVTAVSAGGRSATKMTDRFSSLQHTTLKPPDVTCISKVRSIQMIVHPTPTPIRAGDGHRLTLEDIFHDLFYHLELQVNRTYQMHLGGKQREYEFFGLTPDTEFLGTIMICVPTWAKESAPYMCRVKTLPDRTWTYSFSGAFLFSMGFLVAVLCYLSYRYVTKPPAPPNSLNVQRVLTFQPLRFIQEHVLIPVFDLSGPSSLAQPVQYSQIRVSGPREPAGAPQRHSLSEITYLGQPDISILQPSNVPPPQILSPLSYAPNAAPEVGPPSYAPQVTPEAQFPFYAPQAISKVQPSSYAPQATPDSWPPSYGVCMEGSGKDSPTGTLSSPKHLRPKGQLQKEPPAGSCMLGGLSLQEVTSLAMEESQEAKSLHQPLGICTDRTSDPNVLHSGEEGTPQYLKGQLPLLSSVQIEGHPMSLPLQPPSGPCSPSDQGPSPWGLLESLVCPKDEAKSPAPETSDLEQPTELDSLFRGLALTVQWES
T1 sequence 2: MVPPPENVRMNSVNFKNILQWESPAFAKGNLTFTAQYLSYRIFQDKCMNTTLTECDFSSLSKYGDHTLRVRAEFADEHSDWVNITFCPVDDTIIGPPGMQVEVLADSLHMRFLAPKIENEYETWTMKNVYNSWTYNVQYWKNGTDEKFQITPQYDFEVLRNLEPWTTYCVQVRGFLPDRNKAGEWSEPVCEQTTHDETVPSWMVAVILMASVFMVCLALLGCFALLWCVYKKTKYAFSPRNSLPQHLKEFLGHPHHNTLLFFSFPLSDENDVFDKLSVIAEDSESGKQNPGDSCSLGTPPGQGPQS
Briefly: cell-based or functional assay.

B1: IL-22-CEE (ligand)
chain: LLLALLVQGGAAAPISSHCRLDKSNFQQPYITNRTFMLAKEASLADNNTDVRLIGEKLFHGVSMSERCYLMKQVLNFTLEEVLFPQSDRFQPYMQEVVPFLARLSNRLSTCHIEGDDLHIQRNVQKLKDTVKKLGESGEIKAIGELEYMPME
As to B1, the “proliferation of BaF3/CRF2-4/IL-22RA cells (Alamar Blue), IL-22-CEE at 0.06 ng/ml” value is roughly 2 fold over background.
